Experimental data taken from the RNAGym collection of RNA variant scans (doi:10.7554/elife.80360).

B1: HDV Ribozyme (parent)
chain: GGCCGGCAUGGUCCCAGCCUCCUCGCUGGCGCCGGCUGGGCAACAUUCCGAGGGGACCGUCCCCUCGGUAAUGGCGAAUGGGACCCA

Variants of: B1
Test: self-cleavage, relative activity (ratio to wild type); higher = more cleavage; co-transcriptional

Variant | self-cleavage
C13A | 0.21
U20A A42C | 0.0594
C24G G73A | 0.151
C7U G38C | 0.0462
G6A C22A | 0.208
G5U C49G | 0.0831
A8G U27C | 0.791
C48G A56G | 1.03
G17U A42C | 0.125
G53U G55C | 1.01
G59U G82A | 0.338
G76A G81A | 0.332
C14G C61U | 0.598
A45G G55U | 0.888
C48G A71C | 1.03
C14G C33U | 0.32
G73A G74C | 0.176
U27A C41A | 0.895
A71U G74C | 0.244
G6U G55U | 0.942
C49U G54C | 0.856
C62U A77U | 0.429
A16U C33A | 0.0639
G2C U37C | 0.17

Variant | self-cleavage
C13A U47C | 0.277
G6C C41G | 0
G31C C41U | 0.138
C3A C33U | 0.166
G29C A42U | 0.0314
C19U G29C | 0.122
C14U U46C | 1.03
G2A C33U | 0.035
G29C A83C | 0.142
G31U C58G | 0.282
C18U G55A | 0.919
G54A C66G | 0.821
C33A C64U | 0.086
A56C A77U | 0.437
C7A G25U | 0.102
G28U C85U | 0.0639
G35C A71C | 0
C36A C57A | 0.297
U20A G38A | 0.0332
C33A C61G | 0.237
A71G A78C | 0.138
G52C C66U | 0.965
C15G C22U | 0.222
A71U C84G | 0.481

Variant | self-cleavage
U9G U65C | 1.17
G6A C32G | 0.138
A45C U65C | 0.646
G52C G67A | 0.62
A70C G81U | 0.249
G5U C30U | 0.237
G59U C64U | 1.05
C41G C85A | 0.617
C32A G81U | 0.136
U12C A87G | 0.369
C58A A83G | 0.707
G11C A87G | 0.34
C7A U72A | 0.308
G6A G10C | 0.249
C19G G34U | 0.095
C7U G68C | 0.704
A16U A42U | 0.465
U65G C75U | 0.212
G28U G73A | 0
C36A C64A | 0.0405
C57A A87G | 1.07
G5C G10A | 0.208
G82A C85G | 0.339
G39C A87C | 0.323

Variant | self-cleavage
G40C C86G | 0.222
C3A G67U | 0.71
G29C A87G | 0.086
A77U C86G | 0.623
C3G C32A | 0
A16U A77C | 0.0692
U20G C86G | 0.287
C7G G55U | 0.17
G31U G55A | 0.506
G31U C63U | 0.41
U20C C32A | 0.185
C75G U79A | 0.123
U20A C84U | 0.0449
G2C G68U | 0.0449
C22G G54A | 0.101
G29A G81U | 0.125
C14U C57A | 1.07
U23C G52A | 0.906
U9A C44G | 0.914
C58G A83C | 0.386
G74U G80A | 0.0845
G35C G55C | 0.366
G11A A77U | 0.109
G34C U60C | 0.244

Variant | self-cleavage
C4U C49A | 0.332
C41G A71U | 0.554
G28C G68U | 0.0426
C41G U79A | 0.59
G6A U23G | 0.342
G59U A77C | 0.453
C36U A78C | 0.173
C4U U65G | 0.656
C21U G54U | 0.232
G35C G53U | 0.204
G39C A42G | 0.0811
G39U G52A | 0.772
G6C U20G | 0.0978
G10C G38U | 0.132
C30A | 0.547
C58A G81U | 0.397
C66A A78U | 0.198
G25A C84U | 0.173
C36A U37C | 0.489
G31C G74U | 0.143
C19A G50A | 0.0231
C66A U72A | 0.608
C66G G73A | 0.434
C7U U79G | 0.434

Variant | self-cleavage
C22A G76A | 0.212
C49A A87U | 0.857
U47G G54U | 1.07
G54U C66A | 0.796
U9A G52A | 0.99
C44A G73U | 0.397
A16U C49U | 0.918
G2C C30A | 0.0875
C14G G39U | 0.237
G6C A77U | 0.145
G10U G54U | 0.865
G28U U37G | 0.18
C32U A70U | 0.892
A45G C75A | 0.249
C4G C84U | 0.249
U47G A78U | 0.196
C7A G76C | 0.988
G11U G17U | 0.308
A45G C84G | 0.623
G2A G40A | 0.136
G2A G59C | 0.244
U9C A43C | 0.378
U47C G55C | 0.862
G5C G28U | 0

Variant | self-cleavage
U23C C62U | 1.03
C26U A56U | 1.12
C33U G80C | 0.143
C18G G53U | 0.332
C36A U37A | 0.0831
G1C G25A | 0.0755
G40U G76C | 0.492
C14G C85A | 0.166
C32A G38A | 0.0665
C58A C64A | 0.962
A51G G73C | 0.575
A45C C57U | 0.73
A51C A56C | 0.703
G1A G74U | 0.0563
U20G A56G | 0.151
U9A G55C | 1.26
C13U U37A | 0.0308
C7U C63A | 0.751
G39U U79C | 0.155
A71U A83G | 0.677
C63G A77C | 0.58
G11A G28C | 0.0936
C3U G28A | 0.0294
